The values below come from patent US20230242646A1 (JJP BIOLOGICS SP Z O O, published 2023).

Test [1] has as its target T1, membrane-bound full-length human CD89 on HEK293F cells (human, UniProt P24071 22-287).
T1 construct: 2 or transient transfectants; also called membrane human CD89; human FcaRI
Briefly: FACS, unlabelled antibody before MIP8a-PE on HEK293F-huCD89.

The target of test [2] is T1, membrane-bound full-length human CD89 …. The test is described as follows: FACS on HEK293F-huCD89.
Procedure: Then, 10 µL/tube (i.e., 0.1 x 10⁶ cells) of these cells were incubated with 100 µL titrated (in PBS/BSA/NaN₃) purified mouse anti-human CD89 antibody/tube for 30 minutes at 4° C. […] After extensive washing in PBS/BSA/NaN₃, cells were subsequently incubated with 1:200 diluted PE-conjugated goat anti-mouse IgG Fcy-specific antibodies (Jackson ImmunoResearch) for 30 minutes at 4° C. After extensive washing in PBS/BSA/NaN₃, cells were fixed in 2% formaldehyde in PBS/BSA/NaN₃ for 30 minutes at 4° C.
For test [3], the target named is T2, membrane human CD89 on ex vivo primary human neutrophilic granulocytes or monocytic U937 cells (human, UniProt P24071 22-287). Briefly: cell-based or functional assay.
The target in test [4] is T3, recombinant C-terminal polyhistidine-tagged human (extracellular) CD89 (Sino Biological) (human, UniProt P24071 22-227).
T3 construct: extracellular domain; bought protein; also called rhuCD89; soluble monomeric rhuCD89
The test is described as follows: ELISA, antibody before serum IgA on coated rhuCD89; IgA detected. In general terms: An ELISA detects its analyte on a solid surface through an enzyme-linked reagent.
Procedure: After extensive washing with PBS/0.05% Tween 20, plates were blocked with PBS/0.05% Tween 20/1% BSA (Roche) for 1 hour at RT. Subsequently, plates were incubated with 25 µL titrated (in block buffer) purified mouse anti-human CD89 antibody/well for 30 minutes at RT. […] After extensive washing in PBS/0.05% Tween 20, 1:10,000 diluted HRP-conjugated streptavidin (Jackson ImmunoResearch) was added, and incubated for 1 hour at RT, followed by a ready-to-use solution of TMB substrate (Invitrogen) for colorimetric detection.

The target in test [5] is T3, recombinant C-terminal …. Briefly: ELISA on coated rhuCD89.
Procedure: (§1) After extensive washing with PBS/0.05% Tween 20, plates were blocked with PBS/0.05% Tween 20/1% BSA (Roche) for 1 hour at RT. Subsequently, plates were incubated with 50 µL titrated (in block buffer) purified mouse anti-human CD89 antibody/well for 1 hour at RT. […] After extensive washing in PBS/0.05% Tween 20, binding of antibodies on rhuCD89 was determined with 1:5,000 diluted horseradish peroxidase (HRP)-conjugated goat anti-mouse IgG Fcy-specific antibodies (Jackson ImmunoResearch) for 1 hour at RT, followed by a ready-to-use solution of TMB substrate (Invitrogen) for colorimetric detection.
Test [6] addresses T1, membrane-bound full-length human CD89 …. The test is described as follows: FACS, antibody before secretory IgA on HEK293F-huCD89; IgA detected. For orientation: In flow cytometry, cells or beads pass a laser one at a time.
Procedure: Then, 10 µL/tube (i.e., 0.1 x 10⁶ cells) of these cells were incubated with or without 50 µL titrated (in PBS/BSA/NaN₃) purified mouse anti-human CD89 antibody/tube for 30 minutes at 4° C. […] After extensive washing in PBS/BSA/NaN₃, 1:200 diluted PE-conjugated streptavidin (Jackson ImmunoResearch) was added, and incubated for 30 minutes at 4° C. After extensive washing in PBS/BSA/NaN₃, cells were fixed in 4% formaldehyde in PBS/BSA/NaN₃ for 30 minutes at 4° C.
The target is the same in test [7]. Briefly: FACS HEK293F-huCD89, 10 ug/mL; competitor PE-MIP8a.
Procedure: (§2) Then, 10 µL/tube (i.e., 0.1 × 10⁶ cells) of these cells were incubated with or without 100 µL purified mouse anti-human CD89 antibody at 10 µg/mL (in PBS/BSA/NaN₃) for 30 minutes at 4° C. […] After extensive washing in PBS/BSA/NaN₃, cells were fixed in 2% formaldehyde in PBS/BSA/NaN₃ for 30 minutes at 4° C.
Test [8] shares this target. Briefly: FACS, unlabelled antibody before A3-PE on HEK293F-huCD89.
The target is the same in test [9]. Briefly: FACS, antibody before serum IgA on HEK293F-huCD89; IgA detected.
Procedure: Then, 10 µL/tube (i.e., 0.1 x 10⁶ cells) of these cells were incubated with 50 µL titrated (in PBS/BSA/NaN₃) purified mouse anti-human CD89 antibody/tube for 30 minutes at 4° C. […] After extensive washing in PBS/BSA/NaN₃, 1:200 diluted PE-conjugated streptavidin (Jackson ImmunoResearch) was added, and incubated for 30 minutes at 4° C. After extensive washing in PBS/BSA/NaN₃, cells were fixed in 2% formaldehyde in PBS/BSA/NaN₃ for 30 minutes at 4° C.
The target in test [10] is T2, membrane human CD89 on ex vivo primary …. The test is described as follows: cell-based or functional assay. The source holds these as a separate data set.
Test [11] deals with T4, membrane full-length cynomolgus monkey CD89 on HEK293F cells (cynomolgus monkey).
T4 construct: also called cynoCD89; cynomolgus EC1-CD89
T4 chain: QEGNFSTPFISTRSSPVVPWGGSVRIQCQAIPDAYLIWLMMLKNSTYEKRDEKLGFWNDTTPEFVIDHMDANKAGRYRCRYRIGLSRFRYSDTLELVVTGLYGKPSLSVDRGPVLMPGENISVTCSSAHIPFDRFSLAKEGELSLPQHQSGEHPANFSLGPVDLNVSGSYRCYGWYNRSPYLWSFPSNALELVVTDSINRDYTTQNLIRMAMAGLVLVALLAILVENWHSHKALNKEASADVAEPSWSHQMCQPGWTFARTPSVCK
The test is described as follows: FACS, transiently transfected HEK293F.

Test [12] has as its target T2, membrane human CD89 on ex vivo primary …. Briefly: cell-based or functional assay. The source holds these as a separate data set.
The target in test [13] is T5, chimeric human/cynomolgus monkey CD89-hotspots on HEK293F cells (human/cynomolgus chimera, UniProt P24071 22-287).
T5 construct: also called dThr58, Gln59; dArg73, Arg74, Lys76
T5 chain: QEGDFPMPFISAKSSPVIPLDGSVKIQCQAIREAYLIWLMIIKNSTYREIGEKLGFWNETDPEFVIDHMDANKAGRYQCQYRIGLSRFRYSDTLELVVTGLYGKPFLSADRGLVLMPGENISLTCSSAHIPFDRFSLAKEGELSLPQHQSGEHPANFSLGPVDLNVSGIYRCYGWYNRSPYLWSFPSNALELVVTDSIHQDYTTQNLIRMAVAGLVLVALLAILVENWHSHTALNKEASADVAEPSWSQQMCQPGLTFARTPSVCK
The test is described as follows: FACS, 10 µg/mL, transiently transfected HEK293F.
Procedure: (§3) To this end, transient transfected HEK293F cells were put at 10 × 10⁶ cells/mL in ice-chilled phosphate-buffered saline containing 0.1% BSA (Sigma)/0.05% NaN₃ (PBS/BSA/NaN₃) supplemented with 50 µg/mL human IgGs (blocking FcY receptors; Sigma) for 10 minutes at 4° C. Then, 10 µL/tube (i.e., 0.1 × 10⁶ cells) of these cells were incubated with or without 100 µL purified mouse anti-human CD89 antibody at 10 µg/mL (in PBS/BSA/NaN₃) for 30 minutes at 4° C. […] After extensive washing in PBS/BSA/NaN₃, cells were subsequently incubated with 1:200 diluted PE-conjugated goat anti-mouse IgG Fcy-specific antibodies (Jackson ImmunoResearch) for 30 minutes at 4° C. After extensive washing in PBS/BSA/NaN₃, cells were fixed in 2% formaldehyde in PBS/BSA/NaN₃ for 30 minutes at 4° C.

Test [14] addresses T6, chimeric human/cynomolgus monkey CD89-II on HEK293F cells (human/cynomolgus chimera, UniProt P24071 22-287).
T6 construct: also called dIle47 - Ile71 human EC1-CD89; II (47-71)
T6 chain: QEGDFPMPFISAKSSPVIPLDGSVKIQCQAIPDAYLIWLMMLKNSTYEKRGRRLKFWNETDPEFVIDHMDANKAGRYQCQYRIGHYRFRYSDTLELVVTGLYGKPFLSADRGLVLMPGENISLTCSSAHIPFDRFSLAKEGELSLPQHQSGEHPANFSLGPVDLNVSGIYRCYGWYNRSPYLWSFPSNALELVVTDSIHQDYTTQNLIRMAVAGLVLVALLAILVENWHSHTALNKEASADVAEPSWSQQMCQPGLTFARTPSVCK
The test is described as follows: FACS, 10 µg/mL, transiently transfected HEK293F.
Procedure: as §3

Test [15] addresses T7, chimeric human/cynomolgus monkey CD89-I on HEK293F cells (human/cynomolgus chimera, UniProt P24071 22-287).
T7 construct: also called dGln22 - Lys46 human EC1-CD89; I (22-46)
T7 chain: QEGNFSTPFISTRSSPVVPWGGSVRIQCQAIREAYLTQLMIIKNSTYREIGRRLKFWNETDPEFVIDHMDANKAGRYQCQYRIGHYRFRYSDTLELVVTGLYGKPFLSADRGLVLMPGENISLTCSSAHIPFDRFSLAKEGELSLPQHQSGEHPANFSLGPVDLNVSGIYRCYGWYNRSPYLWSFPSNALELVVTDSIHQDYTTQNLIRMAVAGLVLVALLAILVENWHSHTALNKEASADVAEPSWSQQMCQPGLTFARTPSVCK
Briefly: FACS, 10 µg/mL, transiently transfected HEK293F.
Procedure: as §3

Test [16] addresses T8, chimeric human/cynomolgus monkey CD89-III on HEK293F cells (human/cynomolgus chimera, UniProt P24071 22-287).
T8 construct: also called dGly72 - Gly96 human EC1-CD89; III (72-96)
T8 chain: T5 chain with I37T, W38Q, G51D, E59D, D61T, L85H, S86Y
The test is described as follows: FACS, 10 µg/mL, transiently transfected HEK293F.
Procedure: as §3

The target of test [17] is T9, chimeric bovine EC1-Fcgamma2R/human EC2-CD89 on HEK293F cells (bovine/human chimera).
T9 chain: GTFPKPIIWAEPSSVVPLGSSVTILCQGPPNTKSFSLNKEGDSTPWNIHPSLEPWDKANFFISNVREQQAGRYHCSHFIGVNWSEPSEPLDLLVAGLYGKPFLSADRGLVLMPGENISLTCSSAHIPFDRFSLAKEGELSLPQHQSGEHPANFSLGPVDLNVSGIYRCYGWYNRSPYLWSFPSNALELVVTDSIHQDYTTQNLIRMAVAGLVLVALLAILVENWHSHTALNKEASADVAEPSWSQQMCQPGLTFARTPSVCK
The test is described as follows: FACS, transiently transfected HEK293F.
Procedure: To this end, transient transfected HEK293F cells were put at 10 × 10⁶ cells/mL in ice-chilled phosphate-buffered saline containing 0.1% BSA (Sigma)/0.05% NaN₃ (PBS/BSA/NaN₃) supplemented with 50 µg/mL human IgGs (blocking Fcy receptors; Sigma) for 10 minutes at 4° C. Then, 10 µL/tube (i.e., 0.1 × 10⁶ cells) of these cells were incubated with or without 100 µL purified mouse anti-human CD89 antibody at 10 µg/mL (in PBS/BSA/NaN₃) for 30 minutes at 4° C. […] After extensive washing in PBS/BSA/NaN₃, cells were subsequently incubated with 1:200 diluted PE-conjugated goat anti-mouse IgG Fcy-specific antibodies (Jackson ImmunoResearch) for 30 minutes at 4° C. After extensive washing in PBS/BSA/NaN₃, cells were fixed in 2% formaldehyde in PBS/BSA/NaN₃ for 30 minutes at 4° C.

Test [18] has as its target T4, membrane full-length cynomolgus monkey …. The test is described as follows: FACS, 10 µg/mL, transiently transfected HEK293F.
Procedure: To this end, transient transfected HEK293F cells were put at 10 x 10⁶ cells/mL in ice-chilled phosphate-buffered saline containing 0.1% BSA (Sigma)/0.05% NaN₃ (PBS/BSA/NaN₃) supplemented with 50 µg/mL human IgGs (blocking FcY receptors; Sigma) for 10 minutes at 4° C. Then, 10 µL/tube (i.e., 0.1 × 10⁶ cells) of these cells were incubated with or without 100 µL purified mouse anti-human CD89 antibody at 10 µg/mL (in PBS/BSA/NaN₃) for 30 minutes at 4° C. […] After extensive washing in PBS/BSA/NaN₃, cells were subsequently incubated with 1:200 diluted PE-conjugated goat anti-mouse IgG Fcy-specific antibodies (Jackson ImmunoResearch) for 30 minutes at 4° C. After extensive washing in PBS/BSA/NaN₃, cells were fixed in 2% formaldehyde in PBS/BSA/NaN₃ for 30 minutes at 4° C.
The target of test [19] is T5, chimeric human/cynomolgus monkey …. The test is described as follows: FACS, transiently transfected HEK293F.
Procedure: as §3
The target of test [20] is T1, membrane-bound full-length human CD89 …. Briefly: FACS HEK293F-huCD89, 10 ug/mL; competitor PE-A3.
Procedure: as §2
The target in test [21] is T3, recombinant C-terminal …. Briefly: ELISA, coated rhuCD89.
Procedure: as §1
After extensive washing with PBS/0.05% Tween 20, plates were blocked with PBS/0.05% Tween 20/1% BSA (Roche) for 1 hour at RT. […] After extensive washing in PBS/0.05% Tween 20, binding of antibodies on rhuCD89 was determined with 1:5,000 diluted horseradish peroxidase (HRP)-conjugated goat anti-human IgG Fcy-specific antibodies (Jackson ImmunoResearch) for 1 hour at RT, followed by a ready-to-use solution of TMB substrate (Invitrogen) for colorimetric detection.
Test [22] concerns the target T1, membrane-bound full-length human CD89 …. Briefly: FACS HEK293F-huCD89, 10 ug/mL; competitor PE-A59.
Procedure: as §2
Test [23] has the same target. The test is described as follows: FACS HEK293F-huCD89.
Procedure: After extensive washing in PBS/BSA/NaN₃, cells were subsequently incubated with 1:200 diluted PE-conjugated goat anti-human IgG Fcy-specific antibodies (Jackson ImmunoResearch) for 30 minutes at 4° C. After extensive washing in PBS/BSA/NaN₃, cells were fixed in 2% formaldehyde in PBS/BSA/NaN₃ for 30 minutes at 4° C.
Test [24] has as its target T10, chimeric human/cynomolgus monkey CD89-IV on HEK293F cells (human/cynomolgus chimera, UniProt P24071 22-287).
T10 construct: also called dArg97 - Gly121 human EC1-CD89
T10 chain: T5 chain with I37T, W38Q, E52R, K53R, G55K, Q78R, Q80R
Briefly: FACS, 10 µg/mL, transiently transfected HEK293F.
Procedure: as §3

Substitutions are numbered along the chain they refer to.

B1: CD89/IgA blocking mouse anti-human CD89-specific antibody 9H7 (antibody, V domains shown)
VH: QIQLVQSGPELKKPGETVKISCKASGYTFKNYGMNWVKQAPGKGLKWMAWINTYTGEPTHTDDFKGRFVFSLETSASTAYLQINNLKNEDTATYFCARWGLGTTEEAARDYWGQGTTLTVSS
VL: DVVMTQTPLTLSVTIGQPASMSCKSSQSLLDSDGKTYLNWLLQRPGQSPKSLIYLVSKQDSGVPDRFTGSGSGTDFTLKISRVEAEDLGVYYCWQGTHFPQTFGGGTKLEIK
For orientation: EC50 (read off the curve) means the midpoint of the concentration-response curve. For the molecule B1, the “IC50 (read off the curve)” value was approximately 0.4 µg/mL in test [1]; approximately 0.03 µg/mL in test [4]; approximately 0.4 µg/mL in test [6]; approximately 0.4 µg/mL in test [8]; approximately 0.2 µg/mL in test [9]. The results for the “EC50 (read off the curve)” value in test [2] and in test [5] were approximately 0.2 µg/mL and approximately 0.01 µg/mL, respectively. For the same molecule, the “IC50 (read off the bars), binding of granulocytes to plate-bound serum IgA [Donor 2]” value in [3] was approximately 0.2 µg/mL. In addition, in [7], the “% blocking of PE-MIP8a binding” value was more than 90%. Also, the “IC50 (read off the bars), binding of granulocytes to plate-bound serum IgA [Donor 1]” value in test [10] was approximately 0.9 µg/mL.

B2: CD89/IgA blocking mouse anti-human CD89-specific antibody 26D6 (antibody, V domains shown)
VH: QIQLVQSGPELKKPGETVKISCKASGYTLTKYGMNWVKQAPGKGLKWMGWINTYTGEPTYADDFKGRFAFSLETSASTAYLQINNLKNEDTATYFCASLPLFGRDSFAYWGQGTLVTVSA
VL: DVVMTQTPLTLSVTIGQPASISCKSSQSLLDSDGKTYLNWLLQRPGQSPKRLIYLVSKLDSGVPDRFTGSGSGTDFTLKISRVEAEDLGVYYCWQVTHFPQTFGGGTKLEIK
notes: also called 26B6 [sic]
For B2, the binding result was “no binding (tested: 10 µg/mL)” in test [11]; “binds” in test [13]; “binds” in [14]; “binds” in [15]; “binds” in test [16]; “no binding (tested: 10 µg/mL)” in test [17]. Moreover, the “IC50 (read off the bars), binding of granulocytes to plate-bound serum IgA [Donor 2]” value in test [3] is approximately 0.1 µg/mL. In test [5], the “EC50 (read off the curve)” value is approximately 0.008 µg/mL. The “IC50 (read off the bars), binding of granulocytes to plate-bound serum IgA [Donor 3]” value in test [12] is approximately 1 µg/mL. For the same molecule, the entries for the “IC50 (read off the curve)” value in test [6], in [8] and in test [9] were approximately 0.3 µg/mL, approximately 0.3 µg/mL and approximately 0.2 µg/mL, respectively. Moreover, the “% blocking of PE-MIP8a binding” value in [7] is more than 90%.

B3: CD89/IgA blocking mouse anti-human CD89-specific antibody 16D6 (antibody, V domains shown)
VH: QVQLQQSGAELMKPGASVKISCKATGYTFSTYWIEWVKQRPGHGLEWIGEILPGSGSANYNEKFKGKATFTADTSSNTAYMQLSSLTFEDSAVYYCAKGFGSPYYYAMDYWGQGTSVTVSS
VL: EIVLTQSPALMAASPGEKVTITCSVSSSISSSNLHWYQQKSETSPKPWIYGTSKLASGVPVRFSGSGSGTSYSLTISNMEAEDAATYYCQQWSSFPLTFGGGTKLEIK
notes: also called 16D16 [sic]
The EC50 is the concentration at which the effect is half-maximal. Regarding B3, the binding result is listed as “binds” in test [18]; “no binding (tested: 10 µg/mL)” in [19]; “binds” in [14]; “binds” in test [24]; “binds” in [15]; “binds” in test [16]. The binding result in [17] is “no binding (tested: 10 µg/mL)”. Also, the “% blocking of PE-A3 binding” value in [20] is less than 25%. Further, the figures for the EC50 in test [21] and in test [23] were 0.119 µg/mL and 1.62 µg/mL, respectively. For the same molecule, the “% blocking of PE-MIP8a binding” value in [7] is less than 25%. The “% blocking of PE-A59 binding” value in [22] was less than 25%.
